Measurements reported in PMC11488288.

Tests used:
[1] = actinomycin D chase, RT-qPCR; settings: glycan lost; control: shYTHDF2 + Flag-YTHDF2 WT
[2] = in vitro ubiquitination with His-OGT and UDP-GlcNAc; settings: glycan lost; control: purified Flag-YTHDF2 WT
[3] = cycloheximide chase, immunoblot, NP cells
[4] = nuclear/cytoplasmic fractionation and immunofluorescence
[5] = HA-Ub, MG132, IP and immunoblot, NP cells
[6] = immunoblot of endogenous YTHDF2, NP cells; settings: glycan gained; control: H2O2 alone
[7] = IHC and Western blot of disc tissue; settings: glycan gained; control: IDD mice given saline
[8] = immunoblot, with or without MG132, CQ, BafA1; settings: glycan lost; control: untreated
[9] = glycan lost, control: Flag-YTHDF2 WT
[10] = glycan gained, control: untreated Flag-YTHDF2 WT

B1: YTHDF2: S263A (protein)
parent chain: MSASSLLEQRPKGQGNKVQNGSVHQKDGLNDDDFEPYLSPQARPNNAYTAMSDSYLPSYYSPSIGFSYSLGEAAWSTGGDTAMPYLTSYGQLSNGEPHFLPDAMFGQPGALGSTPFLGQHGFNFFPSGIDFSAWGNNSSQGQSTQSSGYSSNYAYAPSSLGGAMIDGQSAFANETLNKAPGMNTIDQGMAALKLGSTEVASSVPKVVGSAVGSGSITSNIVASSSLPPATIAPPKPASWADIASKPAKQQPKLKTKNGIAGSSLPPPPIKHNMDIGTWDNKGPVAKAPSQALVQNIGQPTQGSPQPVGQQANNSPPVAQASVGQQTQPLPPPPPQPAQLSVQQQAAQPTRWVAPRNRGSGFGHNGVDGNGVGQSQAGSGSTPSEPHPVLEKLRSINNYNPKDFDWNLKHGRVFIIKSYSEDDIHRSIKYNIWCSTEHGNKRLDAAYRSMNGKGPVYLLFSVNGSGHFCGVAEMKSAVDYNTCAGVWSQDKWKGRFDVRWIFVKDVPNSQLRHIRLENNENKPVTNSRDTQEVPLEKAKQVLKIIASYKHTTSIFDDFSHYEKRQEEEESVKKERQGRGK
- other: target mRNA stability [1]: decreases
- other: ubiquitination [2]: increases
- degradation_or_half_life [3, 9]: decreases
- localisation_or_trafficking [4, 9]: no change
- other: ubiquitination [5, 9]: increases

B2: YTHDF2: TMG (protein)
parent chain: MSASSLLEQRPKGQGNKVQNGSVHQKDGLNDDDFEPYLSPQARPNNAYTAMSDSYLPSYYSPSIGFSYSLGEAAWSTGGDTAMPYLTSYGQLSNGEPHFLPDAMFGQPGALGSTPFLGQHGFNFFPSGIDFSAWGNNSSQGQSTQSSGYSSNYAYAPSSLGGAMIDGQSAFANETLNKAPGMNTIDQGMAALKLGSTEVASSVPKVVGSAVGSGSITSNIVASSSLPPATIAPPKPASWADIASKPAKQQPKLKTKNGIAGSSLPPPPIKHNMDIGTWDNKGPVAKAPSQALVQNIGQPTQGSPQPVGQQANNSPPVAQASVGQQTQPLPPPPPQPAQLSVQQQAAQPTRWVAPRNRGSGFGHNGVDGNGVGQSQAGSGSTPSEPHPVLEKLRSINNYNPKDFDWNLKHGRVFIIKSYSEDDIHRSIKYNIWCSTEHGNKRLDAAYRSMNGKGPVYLLFSVNGSGHFCGVAEMKSAVDYNTCAGVWSQDKWKGRFDVRWIFVKDVPNSQLRHIRLENNENKPVTNSRDTQEVPLEKAKQVLKIIASYKHTTSIFDDFSHYEKRQEEEESVKKERQGRGK
- expression_or_secretion [6]: increases
- degradation_or_half_life [3, 10]: increases
- expression_or_secretion [7]: increases
- localisation_or_trafficking ([4]; glycan gained, control: untreated): no change
- other: ubiquitination [5, 10]: changes

B3: YTHDF2: OSMI-1 (protein)
parent chain: MSASSLLEQRPKGQGNKVQNGSVHQKDGLNDDDFEPYLSPQARPNNAYTAMSDSYLPSYYSPSIGFSYSLGEAAWSTGGDTAMPYLTSYGQLSNGEPHFLPDAMFGQPGALGSTPFLGQHGFNFFPSGIDFSAWGNNSSQGQSTQSSGYSSNYAYAPSSLGGAMIDGQSAFANETLNKAPGMNTIDQGMAALKLGSTEVASSVPKVVGSAVGSGSITSNIVASSSLPPATIAPPKPASWADIASKPAKQQPKLKTKNGIAGSSLPPPPIKHNMDIGTWDNKGPVAKAPSQALVQNIGQPTQGSPQPVGQQANNSPPVAQASVGQQTQPLPPPPPQPAQLSVQQQAAQPTRWVAPRNRGSGFGHNGVDGNGVGQSQAGSGSTPSEPHPVLEKLRSINNYNPKDFDWNLKHGRVFIIKSYSEDDIHRSIKYNIWCSTEHGNKRLDAAYRSMNGKGPVYLLFSVNGSGHFCGVAEMKSAVDYNTCAGVWSQDKWKGRFDVRWIFVKDVPNSQLRHIRLENNENKPVTNSRDTQEVPLEKAKQVLKIIASYKHTTSIFDDFSHYEKRQEEEESVKKERQGRGK
- localisation_or_trafficking ([4]; glycan lost, control: untreated): no change
- expression_or_secretion [8]: decreases
